Legend:
human LILRB3 = target: T1, human LILRB3 (human, UniProt O75022 24-631); experiment: flow cytometry, LILRB3 CHOs
T1 construct: Over-expressed on CHO-s cells; also called hLILRB3

human LILRB4 = target: T2, human LILRB4 (human, UniProt Q8NHJ6 22-448); experiment: flow cytometry, LILRB4 CHOs
T2 construct: Over-expressed on CHO-s cells; also called hLILRB4

[1] = target: T3, human LILRB2 expressed on cells (human, UniProt Q8N423 22-597); experiment: blocking of HLA-G tetramer on LILRB2 CHOs, flow cytometry, mAb 10 ug/mL
T3 construct: CHO-s cells over-expressing full-length human LILRB2, or primary human macrophages and dendritic cells; also called hLILRB2-CHO-s; hLILRB2+ CHO-s
T3 sequence (Q8N423 other isoform, or with tags, fused parts or gaps limits assumed): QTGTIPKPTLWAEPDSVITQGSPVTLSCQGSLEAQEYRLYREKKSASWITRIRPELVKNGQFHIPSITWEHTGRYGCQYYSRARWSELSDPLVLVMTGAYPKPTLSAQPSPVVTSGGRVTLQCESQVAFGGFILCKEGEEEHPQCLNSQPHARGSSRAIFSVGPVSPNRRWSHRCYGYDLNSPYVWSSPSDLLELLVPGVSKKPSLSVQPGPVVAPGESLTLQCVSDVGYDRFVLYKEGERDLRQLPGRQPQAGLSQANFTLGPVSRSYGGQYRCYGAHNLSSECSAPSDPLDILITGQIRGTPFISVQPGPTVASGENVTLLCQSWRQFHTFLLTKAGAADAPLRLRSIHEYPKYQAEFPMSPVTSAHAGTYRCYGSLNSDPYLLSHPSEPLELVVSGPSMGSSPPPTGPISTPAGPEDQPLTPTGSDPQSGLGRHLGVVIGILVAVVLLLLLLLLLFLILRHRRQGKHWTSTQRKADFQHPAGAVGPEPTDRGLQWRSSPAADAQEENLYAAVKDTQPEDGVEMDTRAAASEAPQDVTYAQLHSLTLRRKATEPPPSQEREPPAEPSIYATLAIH
Protocol: (§1) In the secondary screen, 1×10⁵ CHO-s cells over-expressing human LILRB2 were plated in 96-well round-bottom tissue culture-treated plate and washed twice with 1×DPBS (Gibco) and incubated with 10 μg/mL primary antibody (anti-LILRB2 mAbs or control) prepared in 50 μL FACS buffer (1×DPBS containing 2% HI-FBS (Sigma)+0.05% Sodium Azide). After incubation with mAbs for 30 minutes at 4° C., cells were washed twice in FACS buffer and then resuspended in 50 μL of FACS buffer containing 5 μg/mL APC-conjugated HLA-A2 or HLA-G tetramer (Fred Hutch). Cells were incubated protected from light for 30-60 minutes at 4° C. After incubation with tetramer, cells were washed in FACS buffer and re-suspended in fix buffer (1.5% paraformaldehyde diluted in 1×DPBS). Samples were analyzed using the Celesta flow cytometer analyzer (BD Biosciences). Data represent percent tetramer blocked by mAbs relative to tetramer alone, calculated according to the following equation: […]

human LILRB1 = target: T4, human LILRB1 (human, UniProt Q8NHL6 24-650); experiment: flow cytometry, LILRB1 CHOs
T4 construct: Over-expressed on CHO-s cells; also called hLILRB1
T4 sequence (Q8NHL6 24-650 limits assumed): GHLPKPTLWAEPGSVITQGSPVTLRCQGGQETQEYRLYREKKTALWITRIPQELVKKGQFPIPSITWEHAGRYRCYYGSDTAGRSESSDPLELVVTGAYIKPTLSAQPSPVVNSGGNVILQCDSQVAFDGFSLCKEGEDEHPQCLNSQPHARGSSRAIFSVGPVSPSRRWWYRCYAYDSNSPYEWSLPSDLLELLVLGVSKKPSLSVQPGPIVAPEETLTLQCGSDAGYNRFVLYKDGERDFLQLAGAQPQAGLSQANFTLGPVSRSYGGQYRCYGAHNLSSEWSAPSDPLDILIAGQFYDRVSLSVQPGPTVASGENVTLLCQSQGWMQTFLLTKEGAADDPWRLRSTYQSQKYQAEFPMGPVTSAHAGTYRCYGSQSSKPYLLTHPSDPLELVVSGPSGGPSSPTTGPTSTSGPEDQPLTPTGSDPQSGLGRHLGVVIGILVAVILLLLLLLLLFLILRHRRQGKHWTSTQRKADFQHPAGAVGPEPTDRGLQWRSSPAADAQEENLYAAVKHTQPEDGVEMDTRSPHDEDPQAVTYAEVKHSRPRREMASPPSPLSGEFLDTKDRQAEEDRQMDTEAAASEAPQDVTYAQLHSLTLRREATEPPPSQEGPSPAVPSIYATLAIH

human LILRA4 = target: T5, human LILRA4 (human, UniProt P59901 24-499); experiment: flow cytometry, LILRA4 CHOs
T5 construct: Over-expressed on CHO-s cells; also called hLILRA4
T5 sequence (P59901 other isoform, or with tags, fused parts or gaps limits assumed): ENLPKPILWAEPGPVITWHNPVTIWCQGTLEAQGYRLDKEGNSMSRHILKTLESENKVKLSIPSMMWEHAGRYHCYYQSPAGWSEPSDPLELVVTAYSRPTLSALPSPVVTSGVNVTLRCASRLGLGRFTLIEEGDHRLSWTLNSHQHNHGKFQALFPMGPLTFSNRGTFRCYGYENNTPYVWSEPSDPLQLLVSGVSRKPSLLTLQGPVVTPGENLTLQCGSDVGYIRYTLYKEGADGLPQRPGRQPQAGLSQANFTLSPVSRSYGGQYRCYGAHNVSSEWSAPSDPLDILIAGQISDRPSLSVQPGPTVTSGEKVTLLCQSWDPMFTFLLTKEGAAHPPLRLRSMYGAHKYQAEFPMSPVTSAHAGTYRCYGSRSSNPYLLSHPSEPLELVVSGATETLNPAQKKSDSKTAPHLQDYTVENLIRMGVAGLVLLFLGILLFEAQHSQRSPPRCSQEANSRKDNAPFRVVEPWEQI

human LILRB2-His = human LILRB2-His (human, UniProt Q8N423 22-460); experiment: SPR, Sierra Sensors MASS-2; antibody captured on anti-human Fc, LILRB2-His 65 to 0.27 nM, 1:1 Langmuir fit
Chain of human LILRB2-His (Q8N423 other isoform, or with tags, fused parts or gaps): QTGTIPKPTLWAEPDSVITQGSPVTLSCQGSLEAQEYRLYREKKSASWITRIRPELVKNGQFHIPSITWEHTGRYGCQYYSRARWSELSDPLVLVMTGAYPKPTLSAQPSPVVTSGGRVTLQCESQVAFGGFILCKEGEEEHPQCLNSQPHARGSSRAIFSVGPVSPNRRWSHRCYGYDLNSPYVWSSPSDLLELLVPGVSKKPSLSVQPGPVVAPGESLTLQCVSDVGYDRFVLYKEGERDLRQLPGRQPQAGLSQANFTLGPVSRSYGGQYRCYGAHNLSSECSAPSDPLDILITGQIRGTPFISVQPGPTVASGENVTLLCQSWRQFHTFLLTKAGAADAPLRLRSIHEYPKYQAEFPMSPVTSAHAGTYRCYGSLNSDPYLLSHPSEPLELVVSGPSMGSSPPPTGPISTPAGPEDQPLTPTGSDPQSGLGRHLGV
Protocol: Using a Mass-2 (Sierra Sensors) high capacity amine chip preimmobilized with AffiniPure Goat Anti-Human IgG, Fcγ Fragment Specific antibody, humanized antibodies were captured on the anti-human surface and then binding to human LILRB2-His was measured by flowing six different concentrations from 65 to 0.27 nM of the analyte over the antibody surface. The anti-LILRB2 surface was removed (10 mM Glycine, pH 2.0) and recaptured between all concentrations or buffer only cycles. The data was analyzed using the Sierra Analyzer software (version 3.1.14). All curves were double subtracted and fit to a 1:1 Langmuir Fit.

human LILRA1 = target: T6, human LILRA1 (human, UniProt O75019 17-489); experiment: flow cytometry, LILRA1 CHOs
T6 construct: Over-expressed on CHO-s cells; also called hLILRA1
T6 sequence (O75019 17-489 limits assumed): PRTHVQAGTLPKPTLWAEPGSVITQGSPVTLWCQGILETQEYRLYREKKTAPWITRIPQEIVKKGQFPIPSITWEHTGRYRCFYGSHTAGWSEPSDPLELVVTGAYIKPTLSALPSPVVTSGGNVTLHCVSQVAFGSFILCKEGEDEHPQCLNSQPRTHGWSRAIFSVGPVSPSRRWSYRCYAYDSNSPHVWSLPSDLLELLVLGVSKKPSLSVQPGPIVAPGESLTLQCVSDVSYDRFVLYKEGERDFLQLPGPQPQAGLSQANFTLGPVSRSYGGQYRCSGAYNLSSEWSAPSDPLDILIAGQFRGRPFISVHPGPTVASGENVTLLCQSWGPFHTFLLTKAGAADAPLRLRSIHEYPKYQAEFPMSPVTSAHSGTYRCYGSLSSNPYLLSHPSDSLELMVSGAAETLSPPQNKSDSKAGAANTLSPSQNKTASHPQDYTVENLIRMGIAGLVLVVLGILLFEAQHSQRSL

human LILRB5 = target: T7, human LILRB5 (human, UniProt O75023 24-590); experiment: flow cytometry, LILRB5 CHOs
T7 construct: Over-expressed on CHO-s cells; also called hLILRB5
T7 sequence (O75023 24-590 P542R limits assumed): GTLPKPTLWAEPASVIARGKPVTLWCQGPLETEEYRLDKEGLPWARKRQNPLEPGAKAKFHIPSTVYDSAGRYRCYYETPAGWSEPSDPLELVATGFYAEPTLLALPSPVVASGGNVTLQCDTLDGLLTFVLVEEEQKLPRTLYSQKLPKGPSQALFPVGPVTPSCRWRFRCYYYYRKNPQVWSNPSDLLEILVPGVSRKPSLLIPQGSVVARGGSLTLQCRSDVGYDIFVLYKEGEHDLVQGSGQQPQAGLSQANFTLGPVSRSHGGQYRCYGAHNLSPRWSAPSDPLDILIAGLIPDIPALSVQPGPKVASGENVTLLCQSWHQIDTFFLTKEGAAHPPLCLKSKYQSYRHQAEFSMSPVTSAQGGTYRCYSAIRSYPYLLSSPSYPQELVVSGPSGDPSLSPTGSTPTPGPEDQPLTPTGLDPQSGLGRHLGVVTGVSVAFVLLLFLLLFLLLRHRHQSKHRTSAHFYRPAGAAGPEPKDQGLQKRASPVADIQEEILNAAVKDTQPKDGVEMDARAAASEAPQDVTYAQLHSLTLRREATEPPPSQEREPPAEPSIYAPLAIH

human LILRA3 = target: T8, human LILRA3 (human, UniProt Q8N6C8 24-439); experiment: flow cytometry, LILRA3 CHOs
T8 construct: Over-expressed on CHO-s cells; also called hLILRA3
T8 sequence (Q8N6C8 24-439 limits assumed): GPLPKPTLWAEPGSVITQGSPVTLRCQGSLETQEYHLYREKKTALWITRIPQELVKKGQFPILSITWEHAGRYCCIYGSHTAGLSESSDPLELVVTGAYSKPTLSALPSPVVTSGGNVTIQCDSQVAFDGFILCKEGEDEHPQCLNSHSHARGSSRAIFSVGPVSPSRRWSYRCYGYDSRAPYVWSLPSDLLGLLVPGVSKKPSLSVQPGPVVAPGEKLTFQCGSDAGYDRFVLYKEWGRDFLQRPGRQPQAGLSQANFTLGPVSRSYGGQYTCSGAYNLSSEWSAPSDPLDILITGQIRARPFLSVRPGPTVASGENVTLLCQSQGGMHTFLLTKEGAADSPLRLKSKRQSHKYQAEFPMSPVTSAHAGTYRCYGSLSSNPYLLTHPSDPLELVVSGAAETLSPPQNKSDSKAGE

[2] = target: T3, human LILRB2 expressed on cells; experiment: blocking of HLA-A2 tetramer on LILRB2 CHOs, flow cytometry, mAb 10 ug/mL
Protocol: as §1

[3] = target: T9, Cyno Monocytes / Cyno Neutrophils (Macaca fascicularis); experiment: flow cytometry, cyno whole blood, monocytes
T9 construct: cell surface, primary blood cells; also called LILRB2+ populations in cyno whole blood

[4] = target: T10, Rhesus Monocytes / Rhesus Neutrophils (Macaca mulatta); experiment: flow cytometry, rhesus whole blood, neutrophils
T10 construct: cell surface, primary blood cells; also called LILRB2+ populations in rhesus whole blood

[5] = target: T3, human LILRB2 expressed on cells; experiment: flow cytometry, LILRB2 CHOs
human LILRA6 = target: T11, human LILRA6 (human, UniProt Q6PI73 24-481); experiment: flow cytometry, LILRA6 CHOs
T11 construct: Over-expressed on CHO-s cells; also called hLILRA6
T11 sequence (Q6PI73 24-481 limits assumed): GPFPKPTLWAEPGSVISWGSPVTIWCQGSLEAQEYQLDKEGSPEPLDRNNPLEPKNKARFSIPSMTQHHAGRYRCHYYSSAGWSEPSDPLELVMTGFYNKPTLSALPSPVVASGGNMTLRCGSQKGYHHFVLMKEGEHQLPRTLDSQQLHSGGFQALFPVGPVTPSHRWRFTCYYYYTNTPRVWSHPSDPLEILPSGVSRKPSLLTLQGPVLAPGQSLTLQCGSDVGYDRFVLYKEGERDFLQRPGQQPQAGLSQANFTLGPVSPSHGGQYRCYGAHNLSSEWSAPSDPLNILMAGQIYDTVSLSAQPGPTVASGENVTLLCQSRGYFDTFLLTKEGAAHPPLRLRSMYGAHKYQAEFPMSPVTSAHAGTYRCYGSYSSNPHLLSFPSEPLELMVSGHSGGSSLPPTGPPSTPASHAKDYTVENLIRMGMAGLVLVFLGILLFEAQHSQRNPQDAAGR

human LILRA5 = target: T12, human LILRA5 (human, UniProt A6NI73 42-299); experiment: flow cytometry, LILRA5 CHOs
T12 construct: Over-expressed on CHO-s cells; also called hLILRA5
T12 sequence (A6NI73 42-299 limits assumed): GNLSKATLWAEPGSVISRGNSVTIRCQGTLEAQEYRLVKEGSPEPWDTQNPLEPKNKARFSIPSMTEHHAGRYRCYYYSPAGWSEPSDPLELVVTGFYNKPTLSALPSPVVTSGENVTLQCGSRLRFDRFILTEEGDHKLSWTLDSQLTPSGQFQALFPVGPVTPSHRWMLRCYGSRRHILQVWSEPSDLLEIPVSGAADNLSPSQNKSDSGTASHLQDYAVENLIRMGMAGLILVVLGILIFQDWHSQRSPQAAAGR

[6] = target: T3, human LILRB2 expressed on cells; experiment: flow cytometry, human whole blood, monocytes
[7] = target: T9, Cyno Monocytes / Cyno Neutrophils; experiment: flow cytometry, cyno whole blood, neutrophils
[8] = target: T10, Rhesus Monocytes / Rhesus Neutrophils; experiment: flow cytometry, rhesus whole blood, monocytes
[9] = target: T3, human LILRB2 expressed on cells; experiment: cell-based or functional assay
human LILRA2 = target: T13, human LILRA2 (human, UniProt Q8N149 24-483); experiment: flow cytometry, LILRA2 CHOs
T13 construct: Over-expressed on CHO-s cells; also called hLILRA2
T13 sequence (Q8N149 24-483 S135L limits assumed): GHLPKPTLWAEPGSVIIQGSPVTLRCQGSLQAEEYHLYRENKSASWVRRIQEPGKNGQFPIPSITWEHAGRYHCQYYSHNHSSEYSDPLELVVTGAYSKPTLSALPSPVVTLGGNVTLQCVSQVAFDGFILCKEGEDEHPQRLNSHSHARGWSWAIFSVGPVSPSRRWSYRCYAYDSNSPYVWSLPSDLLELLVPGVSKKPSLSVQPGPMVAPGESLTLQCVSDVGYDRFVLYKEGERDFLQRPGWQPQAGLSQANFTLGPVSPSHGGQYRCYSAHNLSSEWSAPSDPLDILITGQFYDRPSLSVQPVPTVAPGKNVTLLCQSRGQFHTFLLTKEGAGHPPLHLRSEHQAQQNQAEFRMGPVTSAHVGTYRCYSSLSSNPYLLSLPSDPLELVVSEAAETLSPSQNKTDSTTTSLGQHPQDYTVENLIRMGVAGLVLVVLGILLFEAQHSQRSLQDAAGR

[10] = target: T3, human LILRB2 expressed on cells; experiment: flow cytometry, human whole blood, neutrophils

| Binder | binding (fold over iso) (human LILRB3) | binding result (human LILRB3) | binding (fold over iso) (human LILRB4) | binding result (human LILRB4) | HLA-G:LILRB2 CHOs blocking (% blocked) [1] [% blocked] | binding (fold over iso) (human LILRB1) | binding result (human LILRB1) | binding (fold over iso) (human LILRA4) | binding result (human LILRA4) | Kd (human LILRB2-His) [nM] | kon (human LILRB2-His) [M⁻¹ s⁻¹] | binding (fold over iso) (human LILRB5) | binding result (human LILRB5) | binding (fold over iso) (human LILRA3) | binding result (human LILRA3) | HLA-A2:LILRB2 CHOs blocking (% blocked) [2] [% blocked] | Cyno Monocytes binding (fold over iso) [3] [fold over iso] | Rhesus Neutrophils binding (fold over iso) [4] [fold over iso] | binding (fold over iso) [5] [fold over iso] | binding (fold over iso) (human LILRA6) | also measured |
| --- | --- | --- | --- | --- | --- | --- | --- | --- | --- | --- | --- | --- | --- | --- | --- | --- | --- | --- | --- | --- | --- |
| J-11 (antibody, human IgG4 S228P, kappa, V domains shown, Human IgG4 chimera of murine origin; also called J-11.h) VH: QVQLQQSGAELMKPGASVKLSCKATGYILTGYWIEWVKQRPGHGLEWIGEILPGSGSTNYNENFKGKATFTADTSSNTAYMQLSSLTTEDSAIYYCARAVLGYFDYWGQGTTLTVSS VL: DIVMTQSHKFMSTSVGDRVSITCKASQDVSTAVAWYQQKPGQSPKLLIYWASTRHTGVPDRFTGSGSGTDYTLTISSVQAEDLALYYCHQHYSTYTFGGGTKLEIKR | 1.09 | no binding | 1.03 | no binding | 99.9 | 1.07 | no binding | -1.27 | no binding | 2.47 | 370000 | 1.22 | no binding | 1.02 | no binding | 94.4 | 0.71 | 0.64 | 3.49 | 1 | koff (human LILRB2-His): 0.000913 s⁻¹; binding (fold over iso) (human LILRA1): -1.63 fold over iso; binding result (human LILRA1): no binding; binding result (human LILRA6): no binding; binding (fold over iso) (human LILRA5): 1.34 fold over iso; binding result (human LILRA5): no binding; Human Monocytes binding (fold over iso) [6]: 8.54 fold over iso; Cyno Neutrophils binding (fold over iso) [7]: 0.94 fold over iso; Rhesus Monocytes binding (fold over iso) [8]: 0.88 fold over iso; CCL2 production (fold over LPS alone) [9]: 0.96 fold over LPS alone; IL-6 production (fold over LPS alone) [9]: 3.06 fold over LPS alone; IL-10 production (fold over LPS alone) [9]: 0.81 fold over LPS alone; TNFa production (fold over LPS alone) [9]: 7.61 fold over LPS alone; binding (fold over iso) (human LILRA2): -2.52 fold over iso; binding result (human LILRA2): no binding; Human Neutrophils binding (fold over iso) [10]: 2.89 fold over iso |
| J-19 (antibody, human IgG4 S228P, kappa, V domains shown, Human IgG4 chimera from a rat immunization; also called J-19.h) VH: QVTLKESGPGILQPSHTLSLTCSFSGFSLNTYAMGVSWIRQPSGKGLEWLASIWWNGNKYNNPSLKSRLTVSKDTSNNQAFLKVTSVDTADTATYYCAHSRIIRFTDYVMDAWGQGASVTVSS VL: DIQMTQSPASLSTFLGEPVTIECRASEDIYNDLAWYQQKPGKSPQLLIYNANSLHTGVPSRFSGSGSGTQYSLKINSLQSEDVASYFCQQYYDYPLTFGSGTKLEIKR | 1.09 | no binding | 1.03 | no binding | 97 | 1.05 | no binding | -26.8 | no binding | 2.62 | 515000 | 1.19 | no binding | 0.97 | no binding | 95.3 | 17.9 | 21.9 | 3.78 | 1.07 | koff (human LILRB2-His): 0.00135 s⁻¹; binding (fold over iso) (human LILRA1): -3.31 fold over iso; binding result (human LILRA1): no binding; binding result (human LILRA6): no binding; binding (fold over iso) (human LILRA5): -0.62 fold over iso; binding result (human LILRA5): no binding; Human Monocytes binding (fold over iso) [6]: 12.3 fold over iso; Cyno Neutrophils binding (fold over iso) [7]: 2.35 fold over iso; Rhesus Monocytes binding (fold over iso) [8]: 6.79 fold over iso; CCL2 production (fold over LPS alone) [9]: 1.69 fold over LPS alone; IL-6 production (fold over LPS alone) [9]: 2.72 fold over LPS alone; IL-10 production (fold over LPS alone) [9]: 0.8 fold over LPS alone; TNFa production (fold over LPS alone) [9]: 8.9 fold over LPS alone; binding (fold over iso) (human LILRA2): -0.51 fold over iso; binding result (human LILRA2): no binding; Human Neutrophils binding (fold over iso) [10]: 4.5 fold over iso |
| J-17 (antibody, human IgG4 S228P, kappa, V domains shown, Human IgG4 chimera of murine origin; also called J-17.h) VH: QIQLVQSGPELKKPGETVKISCKASGYTFTTYGLSWVKQTPGKGLKWMGWINTYSGVPTYTDDFKGRFAFSLETSASTAYLQINNLKNEDTATYFCARPYDFDQVGFAYWGQGTLVTVSA VL: SIVMTQTPKFLLVSAGDRVSITCKASQTVSSDVAWYQQKAGQSPKLLIYYASNRYTGVPDRFTGSGYGTDFTFTISTVQAEDLAVYFCQQDYSSPFTFGGGSKLEIKR | 0.99 | no binding | 1 | no binding | 96.6 | 1.05 | no binding | -36.5 | no binding | 2.85 | 1.56e+06 | 1.03 | no binding | 1.35 | no binding | 93.4 | 0.92 | 1.44 | 3.68 | 0.94 | binding result (human LILRA6): no binding; binding (fold over iso) (human LILRA5): 0.82 fold over iso; binding result (human LILRA5): no binding; Human Monocytes binding (fold over iso) [6]: 11.3 fold over iso; Cyno Neutrophils binding (fold over iso) [7]: 0.87 fold over iso; Rhesus Monocytes binding (fold over iso) [8]: 1.41 fold over iso; CCL2 production (fold over LPS alone) [9]: 1.85 fold over LPS alone; IL-6 production (fold over LPS alone) [9]: 2.57 fold over LPS alone; IL-10 production (fold over LPS alone) [9]: 0.89 fold over LPS alone; TNFa production (fold over LPS alone) [9]: 8.12 fold over LPS alone; binding (fold over iso) (human LILRA2): -1.05 fold over iso; binding result (human LILRA2): no binding; Human Neutrophils binding (fold over iso) [10]: 4.55 fold over iso |

Source: patent US20200339690A1 (JOUNCE THERAPEUTICS, published 2020)
